Measured values published in US6528633.

Assays:
[1] = biological target: clam E3-C/cyclosome complex, activated, partially purified
[2] = biological target: non-specific ubiquitin-protein ligase (E3) from clam oocyte Fraction 1A

B1: recombinant clam E2-C, bacterially expressed (protein)
chain: MSGQNIDPAANQVRQKERPRDMTTSKERHSVSKRLQQELRTLLMSGDPGITAFPDGDNLFKWVATLDGPKDTVYESLKYKLTLEFPSDYPYKPPVVKFTTPCWHPNVDQSGNICLDILKENWTASYDVRTILLSLQSLLGEPNNASPLNAQAADMWSNQTEYKKVLHEKYKTAQSKDK
- half-maximal activation of cyclin ubiquitination [1]: half-maximal activation was obtained with 0.05 µM recombinant E2
- formation of ubiquitin-protein conjugates [2]: the recombinant clam E2 had no significant influence on the formation of ubiquitin-protein conjugates by the non-specific E3
